Measurements published in patent US10899824B2 (Polichem S.A., priority 2016, dated 2021).

Columns and labels:
[1] = test system: HSV-2 MS; test: Post-HSV entry combination (synergy) assay, combination index; format: cell-based; conditions: 0.5 ug/mL
Procedure: Results obtained in the double curve assay were then analysed in silico in a ComboSyn analysis (CompuSyn for Drug Combinations and for General Dose-Effect Analysis by Ting-Chao Chou Memorial Sloan-Keltering Cancer Center New York, N.Y. and Nick Martin Massachustts Institute of Technology Cambridge, Mass.) to evaluate the potential synergies between IgGA and ACV, through the calculation of Combination Index (CI) and Dose Reduction Index (DRI).
The combination index (CI) according to Chou 2006 (23) indicates nearly additive activity in the range of 0.9-1.1, synergism under 0.9, strong synergism between 0.1 and 0.3 and very strong synergism under 0.1. Values of CI over 1.1 indicate antagonism. […]
The first step in IgGA/FOS combination activity evaluation has been the assessment of drug susceptibility for the two chosen HSV isolates already used for the Example 2. […] Combination index was calculated as in Example 2 to assess the synergism between IgGA and FOS. […]
The first step in IgGA/PCV combination activity evaluation has been the assessment of drug susceptibility for the two chosen HSV isolates (HSV-1 LV and HSV-2 MS). […] Combination index was calculated as in Example 2 to assess the synergism between IgGA and PCV. […]

[2] = test system: HSV infected cells; test: IIF binding assay of ScFv A; conditions: ScFv format
Procedure: ScFv gene of IgGA was successfully constructed and cloned into expression vector. ScFv format small scale production of IgGA was performed. The binding activity of ScFv A was evaluated by IIF assays on HSV infected cells.

[3] = test system: HSV-1; test: Cell-to-cell infection inhibition (plaque areas, post-adsorption); format: cell-based; conditions: Fabs 50 ug/mL, IgGs 25 ug/mL
Procedure: (§1) Post post-adsorption assays have been performed in order to evaluate the contribution of IgGA in inhibiting “cell-to-cell” infection by measuring the plaque areas resulting from infected cells treated or untreated with FabA or IgGA.
(§2) Fabs tested in post-adsorption cell-to-cell infection inhibition assays have also been preliminary used at a concentration of 50 and 200 ug/mL against HSV-1 and HSV-2 tested isolates respectively*.
(§3) IgGs tested in post-adsorption “cell-to-cell” infection inhibition assays have also been preliminary used at a concentration of 25 and 100 ug/mL against HSV-1 and HSV-2 tested isolates respectively*.

[4] = test system: HSV-2; test: as above; format: cell-based; conditions: Fabs 200 ug/mL, IgGs 100 ug/mL
Procedure: as §1, §2, §3

[5] = test system: HSV-1 HF strain; test: Emergence of escape mutants under selective pressure; format: cell-based; conditions: selective pressure at 5 and 10 ug/mL; sequential infection rounds
From the text: In order to evaluate the presence of escape virus mutants generated under selective pressure of IgGA, HSV-1 infected VERO-E6 cells have been treated with increasing concentrations of Fab A. More in details, VERO cells have been cultured in T25 flasks in the experimental conditions extensively described in the previous reports (“virus propagation techniques”). Cell monolayers have been then infected by HSV-1 HF strain using 50 pfu/mL of cell free virus. […] […] After three days the infected cell media have been collected and centrifuged in order to use medium centrifuged supernatants for new cell infection rounds. […] Five sequential identical infection rounds have been performed in the presence of the two concentrations of IgGA and control IgG above described. […] In order to test the capability of virus cultured in the constant presence of IgGA to escape from IgGA inhibitory activity the cell free supernatants belonging to the final infections in the presence of IgGA have been incubated 1 h at 37° C. in the presence of high IgGA concentration. After pre-incubation the neutralization mix has been used to infect new VERO-E6 cells.
VERO-E6 monolayers were infected with HSV-1 HF strain using 50 pfu/mL of cell free virus. After virus complete adsorption, the infected cells were treated for three days with subinhibitory concentrations of IgGA, namely 0.2 mg/ml and 1 mg/ml. […]

[6] = test system: HSV-1; test: Post adsorption inhibition of infection (plaque count); format: cell-based; conditions: IgG 25 ug/mL added 30 minutes after infection; 48 h; VERO E6
Procedure: (§4) Post-adsorption assays have been developed in order to speculate on possible administration of IgGA for the treatment of HSV infection, after the beginning of virus active replication within the host.
(§5) The first step of experimental approaches, involving post-HSV adsorption evaluation of FabA or IgGA, is the infection of VERO E6 cells with a standard amount of HSV not previously treated with the FabA or IgGA.
(§6) FabA or IgGA is added to the infected cells only after 30 minutes from virus infection. The infection is then carried out for 48 h in order to appreciate the HSV lysis plaques on VERO E6 cells. The experimental results have been evaluated by counting the plaques for infected cells receiving (post-HSV infection) FabA or IgGA compared to virus experimental positive control.
(§7) Fabs tested in post-adsorption assays have been used at a concentration of 50 and 200 ug/mL against HSV-1 and HSV-2 tested isolates respectively*.
(§8) IgGs tested in post-adsorption assays have been used at a concentration of 25 and 100 ug/mL against HSV-1 and HSV-2 tested isolates respectively*.

[7] = test system: HSV-2; test: as above; format: cell-based; conditions: IgG 100 ug/mL added 30 minutes after infection; 48 h; VERO E6
Procedure: as §4, §5, §6, §7, §8

[8] = test system: HSV-2 tested isolates; test: Neutralising activity against clinical isolates (pre-incubation with virus); format: cell-based; conditions: isolates with different susceptibility to Acyclovir; pre-incubation 1 h at 37° C.
Procedure: (§9) The neutralising activity of FabA or IgGA was evaluated by pre-incubating (1 h at 37° C.) the IgGA with the virus and adding the IgGA/virus-mixture to cell monolayer.

[9] = test system: HSV-1 tested isolates; test: as above; format: cell-based; conditions: isolates with different susceptibility to Acyclovir; pre-incubation 1 h at 37° C.
Procedure: as §9

O=C(O)P(=O)(O)O [FOS, Foscarnet]
activity of FOS alone against HSV-2 [1]: nearly ineffective

B1: ScFv A: single chain antibody from VL and VH of Fab A with (Gly3Ser)3 linker and His tag (protein)
scFv: ELTQSPGTLSSSPGHRATLSCKASAPLGSNHMAWYQQKPGQAPRLLIYGASTRATGVPARFTGSGSGTDFTLTISSLQPEDFATYYCQQANSFPRTFGQGTKVEIKGGGSGGGSGGGSLESGGGVVQPGRSLRLSCAASGFTFTTFAMHWVRQAPGKGLEWLAFISYDGSNKYYADSVKGRFTISRDNSKNTLYLQMNSLRAEDTSIYYCAREVWNYADYWGQGALVTVSS
modifications: left off: small tags and cut ends
notes: single chain antibody from VL and VH of Fab A with (Gly3Ser)3 linker and His tag
IIF signal and binding level [2]: high IIF background signal and low binding | recognition of HSV infected cells in IIF [2]: able to recognize HSV infected cells

B2: IgGA: IgG1 Fab Ex2 converted into a full IgG1, identified as IgGA (antibody, V domains shown)
VH: LESGGGVVQPGRSLRLSCAASGFTFTTFAMHWVRQAPGKGLEWLAFISYDGSNKYYADSVKGRFTISRDNSKNTLYLQMNSLRAEDTSIYYCAREVWNYADYWGQGALVTVSS
VL: ELTQSPGTLSSSPGHRATLSCKASAPLGSNHMAWYQQKPGQAPRLLIYGASTRATGVPARFTGSGSGTDFTLTISSLQPEDFATYYCQQANSFPRTFGQGTKVEIK
inhibition of plaque areas (cell-to-cell infection), HSV-1 [3]: even higher than Fab A inhibition activity | inhibition of plaque areas (cell-to-cell infection), HSV-2 [4]: even higher than Fab A inhibition activity | generation of escape mutants under selective pressure [5]: no “escape mutants” have been generated | generation of escape mutants under selective pressure (Example 1) [5]: no “escape mutants” were generated | post-adsorption inhibition of new infection events and infectious foci (plaques), HSV-1 [6]: strongly inhibits | post-adsorption inhibition of new infection events and infectious foci (plaques), HSV-2 [7]: strongly inhibits | neutralisation of HSV-2 isolates [8]: potently neutralises | neutralisation of HSV-1 isolates [9]: potently neutralises
